Experimental data: paper PMC9663175, “Cryo-EM structures reveal the activation and substrate recognition mechanism of human enteropeptidase” (Nature Communications, 2022)
Where a chain is given by its changes, count along the chain named. Numbers in names are those of the source.

T1: hEP heavy chain (residues 182-784 of human enteropeptidase, after trypsin activation) (human, UniProt P98073 182-784, N-linked glycans)
T1 construct: human enteropeptidase heavy chain of the 182-1019 construct (LDLR, CUB, MAM, CUB2, LDLR2, SRCR domains); C-terminal limit 784 follows from Ile785 as the new N-terminus of the light chain; Stays linked to the light chain by the disulfide Cys772-Cys896; source: HEK293F, transfected, secreted, purified from supernatant (Ni-NTA) as the 182-1019 zymogen, then cleaved with trypsin
T1 sequence (looked up): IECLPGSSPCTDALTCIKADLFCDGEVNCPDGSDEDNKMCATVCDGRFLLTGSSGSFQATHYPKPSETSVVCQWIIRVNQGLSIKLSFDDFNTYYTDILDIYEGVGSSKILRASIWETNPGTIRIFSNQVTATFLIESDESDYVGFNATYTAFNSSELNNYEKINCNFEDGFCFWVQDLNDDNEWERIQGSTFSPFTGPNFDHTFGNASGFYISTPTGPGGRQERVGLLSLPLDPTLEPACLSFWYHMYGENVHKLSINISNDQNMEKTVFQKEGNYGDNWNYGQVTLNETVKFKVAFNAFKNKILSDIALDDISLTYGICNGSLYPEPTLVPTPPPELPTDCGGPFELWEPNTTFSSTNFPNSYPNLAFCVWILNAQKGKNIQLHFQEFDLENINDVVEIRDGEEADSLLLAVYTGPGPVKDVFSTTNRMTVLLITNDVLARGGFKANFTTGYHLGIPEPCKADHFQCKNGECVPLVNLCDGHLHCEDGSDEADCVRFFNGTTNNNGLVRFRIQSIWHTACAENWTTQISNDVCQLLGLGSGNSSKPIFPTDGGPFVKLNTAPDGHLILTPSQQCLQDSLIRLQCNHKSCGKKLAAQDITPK

B1: hEP light chain (peptidase domain, residues 785-1019), wild type (domain or fragment, human, UniProt P98073 785-1019, looked up)
chain: IVGGSNAKEGAWPWVVGLYYGGRLLCGASLVSSDWLVSAAHCVYGRNLEPSKWTAILGLHMKSNLTSPQTVPRLIDEIVINPHYNRRRKDNDIAMMHLEFKVNYTDYIQPICLPEENQVFPPGRNCSIAGWGTVVYQGTTANILQEADVPLLSNERCQQQMPEYNITENMICAGYEEGGIDSCQGDSGGPLMCQENNRWFLAGVTSFGYKCALPNRPGVYARVSRFTEWIQSFLH
modifications: N-linked glycans
notes: human enteropeptidase light chain, N-terminus Ile785 (IVGG) after trypsin cleavage; Stays linked to the heavy chain by the disulfide Cys772-Cys896; source: HEK293F, transfected, secreted, purified from supernatant (Ni-NTA) as the 182-1019 zymogen, then cleaved with trypsin
B2: hEP light chain (residues 785-1019) inhibited by nafamostat (domain or fragment, human, UniProt P98073 785-1019, looked up)
chain: B1 chain
modifications: Ser971 covalently bound to the reaction product of nafamostat; N-linked glycans
notes: human enteropeptidase light chain, N-terminus Ile785 after trypsin cleavage; Stays linked to the heavy chain by the disulfide Cys772-Cys896
B3: hEP^mut light chain (peptidase domain, residues 785-1019, H825A, D876A, S971A) (domain or fragment, human, UniProt P98073 785-1019, looked up)
chain: B1 chain with H41A, D92A, S187A
modifications: N-linked glycans
notes: human enteropeptidase light chain, N-terminus Ile785 after trypsin cleavage, catalytic triad mutated to Ala; The light chain of m1; also called light chain of hEP^mut

These binders were tested against T1, hEP heavy chain (residues 182-784 of …) (assay: cryo-EM structure; trypsin-activated two-chain hEP (residues 182-1019), heavy and light chains linked by a disulfide; wild type, catalytic-triad mutant, or wild type incubated with nafamostat). Conditions: both partners purified.

binding result	Binder
binds	B1
binds	B2
binds	B3
